{"source": "paper PMC6699766", "key": {"[1]": {"biological_target": "photosystem I complex of Prochlorococcus marinus ecotype MED4 (Prochlorococcus marinus MED4 (endogenous in thylakoid membranes))", "experiment": "atomic force microscopy"}, "[2]": {"biological_target": "photosystem I complex of Prochlorococcus marinus ecotype MED4 (Prochlorococcus marinus MED4 (endogenous in thylakoid membranes))", "experiment": "atomic force microscopy", "remark": "listed apart in the source"}, "[3]": {"biological_target": "photosystem I complex of Prochlorococcus marinus ecotype MIT9313 (Prochlorococcus marinus MIT9313 (endogenous in thylakoid membranes))", "experiment": "atomic force microscopy"}, "[4]": {"biological_target": "photosystem I complex of Prochlorococcus marinus ecotype SS120 (Prochlorococcus marinus SS120 (endogenous in thylakoid membranes))", "experiment": "atomic force microscopy"}, "[5]": {"biological_target": "photosystem I complex of Synechocystis sp. PCC 6803", "experiment": "negative stain TEM"}}, "note": "Like-named read-outs stand apart in the source and are kept apart here.", "data": [{"substance": "photosystem I complex of Prochlorococcus marinus ecotype MED4", "values": [{"measurement": "stoichiometry N", "setting": "[1]", "value": 3}, {"measurement": "ratio of PSI monomer equivalents in trimeric vs monomeric or dimeric PSI", "setting": "[2]", "value": 5.3}, {"measurement": "stoichiometry N", "setting": "[2]", "value": 2}]}, {"substance": "photosystem I complex of Prochlorococcus marinus ecotype MIT9313", "values": [{"measurement": "ratio of trimeric to non-trimeric PSI", "setting": "[3]", "value": 44.5}, {"measurement": "stoichiometry N", "setting": "[3]", "value": 3}]}, {"substance": "photosystem I complex of Prochlorococcus marinus ecotype SS120", "values": [{"measurement": "stoichiometry N", "setting": "[4]", "value": 3}]}, {"substance": "photosystem I complex of Synechocystis sp. PCC 6803", "values": [{"measurement": "stoichiometry N", "setting": "[5]", "value": 3}]}]}
